Molecular target: batCoV-SHC014 S-2P (spike ectodomain) (Bat SARS-like coronavirus RsSHC014, UniProt U5WLK5, stabilised)
Assay: ELISA

B1: DH1047 (cross-neutralizing RBD antibody), IgG (antibody, V domains shown)
VH: QVQLVQSGAEVKKPGASVQVSCQASANTFTNHYIHWVRQAPGQGLEWMGIIYPTGGNTIYAQGFQGRVTMTRDTSLNTIYLELSSLRSEDTAVYYCARDVRVDDSWSGYDLLSGGTYFDYWGQGTLVTVSS
VL: not shown
Does B1 bind?
Result: binds
